What was measured:
[1] = target: GroES^7I25A1,4 (E. coli); assay: MST; cochaperonin labelled with DyLight 650; unlabelled GroEL or GroEL^SR in a serial dilution of 15 samples; 50 mM TrisCl pH 7.5, 100 mM KCl, 10 mM MgCl2, 1 mM EDTA, 2 mM ADP, 0.5 mg/mL BSA; 30 min incubation
[2] = target: GroES^7I25A1,2 (E. coli); assay: as above
[3] = target: GroES^7I25A_(1,4,7) (E. coli); assay: as above
[4] = target: GroES^7I25A1,3 (E. coli); assay: as above
[5] = target: GroESL27A (E. coli) (UniProt P0A6F9); assay: as above
[6] = target: GroESI25A (E. coli) (UniProt P0A6F9); assay: as above
[7] = target: GroES^7I25A_(1,4,6) (E. coli); assay: as above
[8] = target: GroES^7I25A1 (E. coli)
[9] = target: GroES^7I25D1,4 (E. coli); assay: MST; cochaperonin labelled with DyLight 650, unlabelled GroEL or GroEL^SR titrated (serial dilution of 15 samples), 30 min incubation; 50 mM TrisCl pH 7.5, 100 mM KCl, 10 mM MgCl2, 1 mM EDTA, 2 mM ADP, 0.5 mg/mL BSA; Monolith NT115, 80% LED, 40% IR-laser
[10] = target: GroES^7I25D1,3 (E. coli); assay: as above
[11] = target: GroES^7I25D1,4,7 (E. coli); assay: as above
[12] = target: GroES^7I25A1 (E. coli); remark: listed apart in the source
[13] = target: GroES^7 (E. coli); assay: MST; cochaperonin labelled with DyLight 650; unlabelled GroEL or GroEL^SR in a serial dilution of 15 samples; 50 mM TrisCl pH 7.5, 100 mM KCl, 10 mM MgCl2, 1 mM EDTA, 2 mM ADP, 0.5 mg/mL BSA; 30 min incubation
[14] = target: GroES^7I25A1 (E. coli); assay: as above
[15] = target: GroES^7I25A1,4 (E. coli)
[16] = target: GroES^7I25A1,2 (E. coli)
[17] = target: GroES^7I25A_(1,4,7) (E. coli)
[18] = target: GroES^7I25A1,3 (E. coli)
[19] = target: GroES^7I25A1 (E. coli); remark: listed apart in the source
[20] = target: GroES^7I25A_(1,4,6) (E. coli)
[21] = target: GroES^7I25A1,4 (E. coli); assay: MST; cochaperonin labelled with DyLight 650, unlabelled GroEL or GroEL^SR titrated (serial dilution of 15 samples), 30 min incubation; 50 mM TrisCl pH 7.5, 100 mM KCl, 10 mM MgCl2, 1 mM EDTA, 2 mM ADP, 0.5 mg/mL BSA; Monolith NT115, 80% LED, 40% IR-laser
[22] = target: GroES^7I25A1,2 (E. coli); assay: as above
[23] = target: GroES^7 (E. coli); assay: as above
[24] = target: GroES^7I25A1,3 (E. coli); assay: as above
[25] = target: GroES^7I25D1 (E. coli); assay: as above
[26] = target: GroES^7I25D1,2 (E. coli); assay: as above

Sequence of GroEL (P0A6F5 whole entry): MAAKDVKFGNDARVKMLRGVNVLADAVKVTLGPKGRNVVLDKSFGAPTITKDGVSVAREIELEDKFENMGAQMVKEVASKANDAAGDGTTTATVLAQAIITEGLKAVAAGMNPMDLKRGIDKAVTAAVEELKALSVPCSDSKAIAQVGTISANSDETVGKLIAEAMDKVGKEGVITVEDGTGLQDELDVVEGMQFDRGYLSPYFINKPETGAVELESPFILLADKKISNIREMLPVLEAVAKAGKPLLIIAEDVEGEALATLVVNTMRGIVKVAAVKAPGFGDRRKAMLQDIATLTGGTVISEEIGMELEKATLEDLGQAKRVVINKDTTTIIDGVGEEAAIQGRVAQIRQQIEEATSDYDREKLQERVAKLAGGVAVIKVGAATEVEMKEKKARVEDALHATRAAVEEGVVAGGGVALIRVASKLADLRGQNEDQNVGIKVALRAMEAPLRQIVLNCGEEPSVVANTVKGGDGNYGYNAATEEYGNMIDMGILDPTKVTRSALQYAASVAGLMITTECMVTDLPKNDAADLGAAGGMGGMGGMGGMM

## GroEL (from UniProt P0A6F5 1-548) (natural protein)
[1]
  fold reduction of affinity against GroES^7: 2 fold
[2]
  fold reduction of affinity against GroES^7: 2 fold
[3]
  fold reduction of affinity against GroES^7: > 25 fold
[4]
  fold reduction of affinity against GroES^7: 2 fold
[5]
  Kd: > 5000 nM
[6]
  Kd: > 5000 nM
[7]
  fold reduction of affinity against GroES^7: > 25 fold
[8]
  ATPase activity of GroEL left in the presence of the variant: 53.2%
[9]
  Kd: 9.58 nM
[10]
  Kd: 13.3 nM
[11]
  Kd: 40 nM
[12]
  yield of GroEL-mediated MDH folding: 72%

## GroEL^SR (GroEL R452A/E461A/S463A/V464A) (from UniProt P0A6F5 1-548) (natural protein)
[1]
  fold reduction of affinity against GroES^7: > 10 fold
[2]
  fold reduction of affinity against GroES^7: > 10 fold
[13]
  Kd: 3.7 nM
[4]
  fold reduction of affinity against GroES^7: > 10 fold
[14]
  Kd: 8.5 nM
[15]
  inhibition of the ATPase of GroEL^SR: 50%
[16]
  inhibition of the ATPase of GroEL^SR: 50%
[17]
  inhibition of the ATPase of GroEL^SR: 20%
[18]
  inhibition of the ATPase of GroEL^SR: 50%
[19]
  inhibition of the ATPase of GroEL^SR: 80%
[20]
  inhibition of the ATPase of GroEL^SR: 20%
[9]
  Kd: 73.1 nM
[21]
  Kd: 51.3 nM
[22]
  Kd: 35 nM
[23]
  Kd: 4.54 nM
[24]
  Kd: 39.7 nM
[10]
  Kd: 71.9 nM
[25]
  Kd: 25.6 nM
[26]
  Kd: 38.7 nM
